A value given as a limit tells only on which side of the number the result lay.

The record followed here is US20230117205A1, “B7-H4 ANTIBODY-DRUG CONJUGATES FOR THE TREATMENT OF CANCER” (SEAGEN INC., priority 2021, published 2023).

Assay [1] deals with hFcγRIIa H131 (biotinylated avi-tagged, fused with monomeric Fc) (human) (UniProt P12318). In words: BLI (Octet HTX), biotinylated hFcγRIIa H131 on streptavidin biosensors, ADC in solution, 30 C, 1:1 fit.
The target of assay [2] is hFcγRIIIa F158 (biotinylated avi-tagged, fused with monomeric Fc) (human) (UniProt P08637). In words: BLI (Octet HTX), biotinylated hFcγRIIIa F158 on streptavidin biosensors, ADC in solution, 30 C, 1:1 fit.
Assay [3] deals with T1, human B7-H4 on cells (human, UniProt Q7Z7D3 25-282).
T1 sequence: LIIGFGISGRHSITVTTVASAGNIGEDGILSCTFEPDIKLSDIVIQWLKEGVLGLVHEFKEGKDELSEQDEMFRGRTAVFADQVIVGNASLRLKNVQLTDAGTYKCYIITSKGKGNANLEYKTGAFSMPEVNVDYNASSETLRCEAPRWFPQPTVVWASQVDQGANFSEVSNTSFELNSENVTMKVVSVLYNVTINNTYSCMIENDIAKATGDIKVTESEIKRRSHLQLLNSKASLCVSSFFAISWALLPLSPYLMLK
In words: IHC on cell pellets, SKBR3 cells that express B7-H4 endogenously.

Assay [4] concerns the target T1, human B7-H4 on cells. In words: IHC on cell pellets, HCC1569 cells that express B7-H4 endogenously.
Assay [5] concerns the target T1, human B7-H4 on cells. The experiment in a line: IHC on cell pellets, HCC1954 cells that express B7-H4 endogenously.
Assay [6] has as its target T1, human B7-H4 on cells. In words: IHC on cell pellets, ZR-75-30 cells that express B7-H4 endogenously.
Assay [7] has as its target T1, human B7-H4 on cells. The experiment in a line: IHC on cell pellets, MDA-MB-468 cells that express B7-H4 endogenously.
Assay [8] addresses T1, human B7-H4 on cells. The experiment in a line: cell-based or functional assay.
Assay [9] addresses hFcγRI (biotinylated avi-tagged, fused with monomeric Fc) (human) (UniProt P12314). In words: BLI (Octet HTX), biotinylated hFcγRI on streptavidin biosensors, antibody in solution, 30 C, 1:1 fit.
For assay [10], the target named is hFcγRIIb (biotinylated avi-tagged, fused with monomeric Fc) (human) (UniProt P31994). In words: BLI (Octet HTX), biotinylated hFcγRIIb on streptavidin biosensors, antibody in solution, 30 C, 1:1 fit.
hFcγRIIb (biotinylated avi-tagged, fused with monomeric Fc) (human), sequence (P31994 43-217): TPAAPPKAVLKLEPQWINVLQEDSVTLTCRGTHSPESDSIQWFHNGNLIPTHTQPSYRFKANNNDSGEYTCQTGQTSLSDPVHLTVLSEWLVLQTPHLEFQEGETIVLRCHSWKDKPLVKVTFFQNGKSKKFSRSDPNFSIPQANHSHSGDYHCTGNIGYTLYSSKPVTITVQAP
Assay [11] concerns the target hFcγRIIa R131 (biotinylated avi-tagged, fused with monomeric Fc) (human) (UniProt P12318). In words: BLI (Octet HTX), biotinylated hFcγRIIa R131 on streptavidin biosensors, antibody in solution, 30 C, 1:1 fit.
Assay [12] addresses hFcγRIIIa F158 (biotinylated avi-tagged, fused with monomeric Fc) (human) (UniProt P08637). The experiment in a line: BLI (Octet HTX), biotinylated hFcγRIIIa F158 on streptavidin biosensors, antibody in solution, 30 C, 1:1 fit.
For assay [13], the target named is hFcγRIIIa V158 (biotinylated avi-tagged, fused with monomeric Fc) (human) (UniProt P08637). In words: BLI (Octet HTX), biotinylated hFcγRIIIa V158 on streptavidin biosensors, antibody in solution, 30 C, 1:1 fit.
hFcγRIIIa V158 (biotinylated avi-tagged, fused with monomeric Fc) (human), sequence (P08637 17-208 F176V): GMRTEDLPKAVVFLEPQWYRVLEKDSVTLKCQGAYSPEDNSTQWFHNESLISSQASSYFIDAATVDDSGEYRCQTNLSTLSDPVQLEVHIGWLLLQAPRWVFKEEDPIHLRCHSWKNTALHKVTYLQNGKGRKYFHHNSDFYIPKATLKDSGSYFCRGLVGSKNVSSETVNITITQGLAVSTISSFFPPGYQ
In assay [14] the target is hscFcRN (biotinylated avi-tagged, fused with monomeric Fc) (human) (UniProt P55899). The experiment in a line: BLI (Octet HTX), biotinylated hscFcRN on streptavidin biosensors, antibody in solution, pH 6.0, 30 C, 1:1 fit.
hscFcRN (biotinylated avi-tagged, fused with monomeric Fc) (human), sequence (P55899 24-297 limits assumed, form in doubt, chain 1 of 2): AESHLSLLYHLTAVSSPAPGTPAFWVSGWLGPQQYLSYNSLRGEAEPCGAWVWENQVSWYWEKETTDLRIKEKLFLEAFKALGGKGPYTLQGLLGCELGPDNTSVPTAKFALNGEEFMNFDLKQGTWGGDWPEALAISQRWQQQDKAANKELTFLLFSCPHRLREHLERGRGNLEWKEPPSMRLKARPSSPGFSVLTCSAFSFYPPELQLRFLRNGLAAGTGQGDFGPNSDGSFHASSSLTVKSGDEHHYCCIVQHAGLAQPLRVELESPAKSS
hscFcRN (biotinylated avi-tagged, fused with monomeric Fc) (human), sequence (chain, as listed by the source limits assumed, form in doubt, chain 2 of 2): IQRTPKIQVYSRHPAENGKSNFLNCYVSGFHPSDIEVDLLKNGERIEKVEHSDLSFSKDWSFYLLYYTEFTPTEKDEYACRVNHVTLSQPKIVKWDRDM

hFcγRI (biotinylated avi-tagged, fused with monomeric Fc) (human), sequence (P12314 16-292): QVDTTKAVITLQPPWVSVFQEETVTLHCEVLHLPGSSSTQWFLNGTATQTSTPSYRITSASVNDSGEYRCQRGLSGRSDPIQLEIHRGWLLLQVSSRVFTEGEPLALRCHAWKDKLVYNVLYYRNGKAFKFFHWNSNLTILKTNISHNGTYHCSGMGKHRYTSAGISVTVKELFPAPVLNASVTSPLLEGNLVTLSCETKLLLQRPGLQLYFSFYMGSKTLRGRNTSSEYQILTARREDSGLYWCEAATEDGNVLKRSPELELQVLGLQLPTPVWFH
hFcγRIIa R131 (biotinylated avi-tagged, fused with monomeric Fc) (human), sequence (P12318 34-217 H167R): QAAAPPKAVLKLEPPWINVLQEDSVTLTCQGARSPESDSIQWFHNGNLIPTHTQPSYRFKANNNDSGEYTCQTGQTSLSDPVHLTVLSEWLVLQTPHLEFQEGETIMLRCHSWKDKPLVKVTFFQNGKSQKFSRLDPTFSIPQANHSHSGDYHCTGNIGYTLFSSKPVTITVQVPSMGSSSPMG

Regarding SGN-B7H4V (antibody), the Kd in assay [1] was found to be 4.2 µM; in [2] it was 10.4 µM.

With anti-B7-H4 antibody clone D1M8I, the intensity score in [3] is 3; in [4] it was 3; in [5], 2; in assay [6], 1; in [7], 3.

On to non-binding control ADC (antibody), for which, in assay [8], the x50 (ng/mL), in vitro cytotoxicity, MDA-MB-468, 96 h, 3D spheroid, CellTiter-Glo is more than 1000 ng/mL; the x50 (ng/mL), in vitro cytotoxicity, MX1, 96 h, 3D spheroid, CellTiter-Glo is more than 1000 ng/mL; the x50 (ng/mL), in vitro cytotoxicity, SKBR3, 96 h, 3D spheroid, CellTiter-Glo was more than 1000 ng/mL.

With “positive control mAb (the anti-CD70 mAb h1F6) (antibody)”, the Kd in assay [9] stood at 1.8 nM; in [10], 29 µM; in assay [11], 3.1 µM; in assay [12] it was 4.8 µM; in assay [13], 780 nM; in assay [14] it was 10.3 nM.

B1: B7H41001 mAb quenched fluorophore conjugate (antibody, human IgG1, kappa, V domains shown)
VH: QLQLQESGPGLVKPSETLSLTCTVSGGSIKSGSYYWGWIRQPPGKGLEWIGNIYYSGSTYYNPSLRSRVTISVDTSKNQFSLKLSSVTAADTAVYYCAREGSYPNQFDPWGQGTLVTVSS
VL: EIVMTQSPATLSVSPGERATLSCRASQSVSSNLAWYQQKPGQAPRLLIYGASTRATGIPARFSGSGSGTEFTLTISSLQSEDFAVYYCQQYHSFPFTFGGGTKVEIKR
modifications: Cy5 dye and quencher pair attached by the same vc linker as in SGN-B7H4V; sites not stated
As for B1, the “apparent half-life of the increase of fluorescent signal (internalization, quenched fluorophore assay on SKBR3 and MX-1 cells)” value in assay [8] lay in the range of 3.2 to 4.9 h.
